For two molecules, IFNγ production by TCR-transduced T cells (relative) results are on record in patent US20240189352A1.

This experiment has as its target RAC2^P29L peptide … presented by HLA-A2 (peptide-loaded T2 cells) (human). Kind of experiment: cell-based or functional assay.

B1: RAC2-T001 TCR (TCR)
TCR alpha: GENVEQHPSTLSVQEGDSAVIKCTYSDSASNYFPWYKQELGKGPQLIIDIRSNVGEKKDQRIAVTLNKTAKHFSLHITETQPEDSAVYFCAASMGNAGNMLTFGGGTRLMVKPH
TCR beta: EPEVTQTPSHQVTQMGQEVILRCVPISNHLYFYWYRQILGQKVEFLVSFYNNEISEKSEIFDDQFSVERPDGSNFTLKIRSTKLEDSAMYFCASSETSGASYEQYFGPGTRLTVT
For B1, the IFNγ production by TCR-transduced T cells (relative) worked out at 100%.

B2: RAC2-T002 TCR (TCR)
TCR alpha: AQSVTQLGSHVSVSEGALVLLRCNYSSSVPPYLFWYVQYPNQGLQLLLKYTTGATLVKGINGFEAEFKKSETSFHLTKPSAHMSDAAEYFCAVGANNLFFGTGTRLTVIPY
TCR beta: EPEVTQTPSHQVTQMGQEVILRCVPISNHLYFYWYRQILGQKVEFLVSFYNNEISEKSEIFDDQFSVERPDGSNFTLKIRSTKLEDSAMYFCASSEWRGSSYNEQFFGPGTRLTVL
As for B2, the IFNγ production by TCR-transduced T cells (relative) is 100%.
